Among the data in paper PMC8708005 are Kd values, retold here.

A word on the Kd: it is the free concentration of one partner at which half of the binding sites on the other are occupied at equilibrium, for simple one-to-one binding. High values mean a looser complex, low ones a tighter complex.

The target in the data set is PCBP2 (poly(C)-binding protein 2, hnRNP E2) (UniProt Q15366). Description: EMSA. As to conditions: EMSA: 25 mM NaH2PO4 pH 8.0, 50 mM NaCl, 25 mM KCl, 2.5 mM MgCl2, 10 mM imidazole, 0.5 mM DTT, 0.5 mM PMSF, 7% glycerol, 0.5 U/uL RNasin, 75 ng/uL BSA …. Background: A gel shift assay detects complexes by their altered migration in electrophoresis.
PCBP2 (poly(C)-binding protein 2, hnRNP E2), sequence (Q15366 whole entry): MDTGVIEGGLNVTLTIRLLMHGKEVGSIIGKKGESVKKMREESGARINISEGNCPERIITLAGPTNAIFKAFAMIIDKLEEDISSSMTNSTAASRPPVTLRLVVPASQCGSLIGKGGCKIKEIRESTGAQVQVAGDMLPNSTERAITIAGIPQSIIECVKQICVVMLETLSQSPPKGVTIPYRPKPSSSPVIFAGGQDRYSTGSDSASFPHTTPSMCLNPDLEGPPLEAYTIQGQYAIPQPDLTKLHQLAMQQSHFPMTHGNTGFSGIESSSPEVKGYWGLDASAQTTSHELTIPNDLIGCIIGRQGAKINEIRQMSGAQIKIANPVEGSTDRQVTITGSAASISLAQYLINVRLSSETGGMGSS

As to “GGUCAUGGCGACUGUCCAGCUUUGUGCCAGGAGCCUCGCAGGGGUUGAUGGGAUUGGGGUUUUCCCCUCCCAUGUGCUCAAGACUGGCGCUAAAAGUUUUGAGCUUCUCAAAAGUCUAGAGCCACCGUCCAGGGAGCAGGUAGCUGCUGGGCUCCGGGGACACUUUGCGUUCGGGCUGGGAGCGUGCUUUCCACGACGGUGACACGCUUCCCUGGAUUGGCAGCCAGACUGCCUUCCGGGUCACUGCCAUGGAGGAGCCGCAGUCAGAUCCUAGCGUCGAGCCCCCUCUGAGUCAGGAAACAUUUUCAGACCUAUGGAAACUACUUCCUGAAAACAACGUUCUGUCCCCCUUGCCGUCCCAAGCAAUG [P0-Δ40p53 RNA]”, the Kd amounted to 63 nM.
